Test in all cases: SPR
In general terms: Surface plasmon resonance follows binding to a sensor surface in real time, without labels.

Experiment [1] has as its target α subunit of Escherichia coli DNA polymerase III holoenzyme (E. coli) (UniProt P10443).
Experiment [2] deals with T1, α subunit of Escherichia coli DNA polymerase III holoenzyme (E. coli, UniProt P10443 1-1160).
The target of experiment [3] is T1, α subunit of Escherichia coli DNA …. This is another data set of the same source.
For experiment [4] the target is unchanged. The source holds these as a separate data set.

Positions count from the first letter of the chain named. In names and notes the source's numbering stands. Where two headings read alike, the source gives them in different places. Bounds are passed on as bounds.

The Kd is the concentration at which binding is half-saturated. The low end stands for higher affinity, the high end for lower affinity. “τC16Δ7 (τC16 with a C-terminal deletion of seven residues) (from UniProt P06710 499-636) (domain or fragment)” returned a Kd in experiment [1] of 6700 nM.

B1: τC16 (Domain V of the τ subunit of E. coli DNA polymerase III holoenzyme, residues 499–643) (domain or fragment)
chain: MKALEHEKTPELAAKLAAEAIERDPWAAQVSQLSLPKLVEQVALNAWKEESDNAVCLHLRSSQRHLNNRGAQQKLAEALSMLKGSTVELTIVEDDNPAVRTPLEWRQAIYEEKLAQARESIIADNNIQTLRRFFDAELDEESIRPI
Consider B1, for which, in experiment [2], the dissociation constant (Kd) turned out to be 0.13 nM. In other words, the sub-nanomolar range.

B2: bio-τC16 (N-terminally biotinylated τC16) (domain or fragment, E. coli)
chain: B1 chain
modifications: biotinylated on the N-terminal biotin-tag
What is called koff is the first-order rate constant of dissociation. Broadly, the kon is the rate constant with which the complex forms. Higher therefore signals fast association. B2: the affinity in experiment [3], expressed as Kd, was 0.264 nM. In experiment [4], binding was characterised by a dissociation constant (Kd) of 0.265 nM, the koff was 0.000402 s⁻¹ and the on-rate constant (kon) amounted to 1.52e+06 M⁻¹ s⁻¹.

B3: τC16[L635P] (domain or fragment, E. coli)
chain: B1 chain with L138P
Take B3: the Kd in experiment [2] was determined as 2.4 nM.

B4: τC16[D636G] (domain or fragment, E. coli)
chain: B1 chain with D139G
B4 returned a Kd in experiment [2] of 3.8 nM.

B5: τC16[F631I] (domain or fragment, E. coli)
chain: B1 chain with F134I
For the molecule B5, binding in experiment [2] was put at a Kd of 99 nM.

B6: τC16[L627P] (domain or fragment, E. coli)
chain: B1 chain with L130P
In experiment [2], B6 displayed a Kd of 1500 nM.

B7: τC16[I618T] (domain or fragment, E. coli)
chain: B1 chain with I121T
Molecule B7 had a Kd in experiment [2] of 0.98 nM. This Kd lies about 1500-fold lower than the previous one.

B8: τC16[S617P] (domain or fragment, E. coli)
chain: B1 chain with S120P
In experiment [2], B8 yielded a dissociation constant (Kd) of 160 nM.
Same read-out and setting: the value for AQARESIIADNNIQTLRRFFDAELDEESIRPI (peptide, UniProt P06710 612-643, looked up) [τCpep32 (synthetic 32-mer peptide of the C-terminus of τ)] was 3800 nM.

B9: τC16Δ11 (τC16 with a C-terminal deletion of 11 residues) (domain or fragment, E. coli)
chain: MKALEHEKTPELAAKLAAEAIERDPWAAQVSQLSLPKLVEQVALNAWKEESDNAVCLHLRSSQRHLNNRGAQQKLAEALSMLKGSTVELTIVEDDNPAVRTPLEWRQAIYEEKLAQARESIIADNNIQTLRRFFD
Consider B9, for which the dissociation constant Kd in experiment [2] is greater than 10000 nM.

B10: τC14 (folded core of Domain V of τ, residues 499–625) (domain or fragment, E. coli)
chain: MKALEHEKTPELAAKLAAEAIERDPWAAQVSQLSLPKLVEQVALNAWKEESDNAVCLHLRSSQRHLNNRGAQQKLAEALSMLKGSTVELTIVEDDNPAVRTPLEWRQAIYEEKLAQARESIIADNNIQ
As for B10, the dissociation constant (Kd) in experiment [2] was greater than 10000 nM.

B11: bio-τC14 (biotinylated τC14) (domain or fragment, E. coli)
chain: B10 chain
modifications: biotinylated on the N-terminal biotin-tag
Take B11: the Kd in experiment [4] is greater than 1000 nM.

Source of the values: publication PMC1888804 (Nucleic Acids Research, 2007).
